Experimental data as given in patent publication US10034836B2, “Formulations of guanylate cyclase C agonists and methods of use” (SYNERGY PHARMACEUTICALS, INC., priority 2008, dated 2018).
Where a SMILES comes first, the peptide text is derived from it. Bridges are numbered along the chain shown (N, C = ends). Primed or numbered codes have the meaning given here. Where no end group is shown, it is not given here. [ ]: non-standard residue; d: D form. PEG3′ = polyethylene glycol such as aminoethyloxy-ethyloxy-acetic acid (AeeA), and polymers thereof

Columns and labels:
[1] = Stability in simulated intestinal fluid (SIF), biological activity by cGMP synthesis in T84 cells; type: in vitro ADME
Description: FIG. 2A: Biological activity of SP-304 incubated for varying lengths of time in simulated intestinal fluid (SIF). SP-304 samples were incubated for 0, 30, 60, 90, 150, and 300 min, respectively, and then tested for their ability to stimulate cGMP synthesis in T84 cells. The cGMP stimulation activity in the sample at 0 min of incubation time in SIF was taken as 100% biological activity. The activities of the other SP-304 incubation samples were calculated as the percentage of activity relative to that of the 0 min sample. Data points shown are the average of triplicate measurements±SD.
(§1) FIG. 7A: Biological activity of SP-333 incubated for varying lengths of time in simulated intestinal fluid (SIF). SP-333 samples incubated for 0, 5, 10, 30, 60, and 120 min, respectively, were tested for their ability to stimulate cGMP synthesis in T84 cells. The control sample marked as C120 was produced by incubating SP-333 with heat inactivated SIF for 120 min. Samples from the incubations were removed and heated at 95° C. for 5 min to inactivate digestive enzymes and then used to stimulate cyclic GMP synthesis in T84 cells. The cGMP stimulation activity in the sample at 0 min of incubation time in SIF was taken as 100% biological activity. The activities of the other SP-304 incubation samples were calculated as the percentage of activity relative to that of the 0 min sample. Data points shown are the average of triplicate measurements±SD.
as §1, with “FIG. 7B:” for “FIG. 7A:”, “of SP-332” for “of SP-333”, “incubating SP-332” for “incubating SP-333”
FIG. 7C: Biological activity of SP-304 incubated for varying lengths of time in simulated intestinal fluid (SIF). SP-304 samples incubated for 0, 10, and 60 min, respectively, were tested for their ability to stimulate cGMP synthesis in T84 cells. The control samples marked as C0 and C60 were produced by incubating SP-304 with heat inactivated SIF for 0 and 60 min, respectively. Samples from the incubations were removed and heated at 95° C. for 5 min to inactivate digestive enzymes and then used to stimulate cyclic GMP synthesis in T84 cells. The cGMP stimulation activity in the sample at 0 min of incubation time in SIF was taken as 100% biological activity. The activities of the other SP-304 incubation samples were calculated as the percentage of activity relative to that of the 0 min sample. […]
FIGS. 7G-1-7G-5: Incubation of SP-333 with SIF for 2, 6, 12 and 24 hrs. Effect of SIF digestion on the activity of SP-333 in T84 stimulation assay was determined (FIG. 7G-1) and samples were also analyzed by HPLC (FIGS. 7G2-5). […]
The stability of SP-304 was also evaluated after incubation with simulated intestinal fluid (SIF) by measuring its biological activity and by HPLC analyses (FIGS. 2A & 2B). […]

intestinal GC-C receptor = target: T1, intestinal GC-C receptor (Homo sapiens, UniProt P25092); assay: Cyclic GMP stimulation assay in T84 cells; type: cell-based; details: for potency in cGMP stimulation assay relative to SP-339 (linaclotide): 30 min exposure (FIG. 6); for potency to stimulate cGMP synthesis in T84 cells relative to SP-333: peggylated analogs of SP-333, 30 min (FIG. 8); for ability to stimulate cGMP synthesis in T84 cells relative to SP-304: 30 min exposure (FIG. 5)
T1 construct: confluent monolayers of T-84 cells in 24-well plates; host or cells: T84 human colon carcinoma cells
T1 sequence (P25092 24-1073): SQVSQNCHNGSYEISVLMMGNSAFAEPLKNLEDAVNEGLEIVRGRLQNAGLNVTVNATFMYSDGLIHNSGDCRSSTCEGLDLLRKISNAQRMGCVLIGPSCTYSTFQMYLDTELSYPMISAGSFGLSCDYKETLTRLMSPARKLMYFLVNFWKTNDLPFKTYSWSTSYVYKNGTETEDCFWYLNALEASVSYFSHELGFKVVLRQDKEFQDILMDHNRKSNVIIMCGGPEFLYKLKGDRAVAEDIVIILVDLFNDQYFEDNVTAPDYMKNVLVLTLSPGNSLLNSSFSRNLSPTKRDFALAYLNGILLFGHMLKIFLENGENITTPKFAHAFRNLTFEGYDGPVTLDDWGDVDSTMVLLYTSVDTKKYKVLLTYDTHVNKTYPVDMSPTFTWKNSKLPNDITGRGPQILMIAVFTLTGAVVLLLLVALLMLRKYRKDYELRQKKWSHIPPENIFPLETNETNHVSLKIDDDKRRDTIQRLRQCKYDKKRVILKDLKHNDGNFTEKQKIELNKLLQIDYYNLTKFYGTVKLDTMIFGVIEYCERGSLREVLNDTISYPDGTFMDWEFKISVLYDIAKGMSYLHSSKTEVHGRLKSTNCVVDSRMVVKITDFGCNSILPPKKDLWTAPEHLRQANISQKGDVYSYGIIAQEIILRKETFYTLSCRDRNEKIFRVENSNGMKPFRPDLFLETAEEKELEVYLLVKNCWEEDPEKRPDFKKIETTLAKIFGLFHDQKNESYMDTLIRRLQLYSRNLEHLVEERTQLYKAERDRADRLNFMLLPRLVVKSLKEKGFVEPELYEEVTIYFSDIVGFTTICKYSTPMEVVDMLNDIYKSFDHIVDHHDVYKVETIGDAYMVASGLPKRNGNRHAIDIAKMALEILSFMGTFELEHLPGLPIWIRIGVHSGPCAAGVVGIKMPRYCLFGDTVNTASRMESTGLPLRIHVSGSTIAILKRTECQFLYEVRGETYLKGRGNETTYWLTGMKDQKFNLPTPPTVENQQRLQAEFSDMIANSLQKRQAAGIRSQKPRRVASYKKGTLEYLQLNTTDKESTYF
Text: FIG. 4: Biological activity of truncated peptides of 16-mer SP-304, as measured by stimulation of cGMP synthesis in T84 cells. SP-338 15-mer peptide is indentical to SP-304 except that it lacks Leu at the C-terminus. SP-327, SP-329 and SP-331 lack Leu at their C-termini relative to their corresponding parents, SP-326, SP-328 and SP-330, respectively. Data points shown are the average of duplicate measurements.
FIG. 5: Stimulation of cGMP synthesis in T84 cells by SP-304 and similar analogs. T84 cells were exposed to test peptides for 30 min and cell lysates were then used to determine intracellular cGMP levels. Data points shown are the average of triplicate measurements±SD.
FIG. 6: Stimulation of cGMP synthesis in T84 cells by SP-339 (linaclotide) and other linaclotide analogs. T84 cells were exposed to test peptides for 30 min and cell lysates were then used to determine intracellular cGMP levels. Data points shown are the average of triplicate measurements±SD.
FIG. 8: Stimulation of cGMP synthesis in T84 cells by the peggylated analogs of SP-333. T84 cells were exposed to the indicated peptides for 30 min and cell lysates were used to determine intracellular cGMP levels. Data points shown are the average of triplicate measurements±SD.
After the 30 min incubation, the medium was aspirated and the reaction was terminated by the addition of 3% perchloric acid. Following centrifugation and the addition of NaOH (0.1 N) to neutralize the pH, intracellular cGMP levels were determined in lysates using a cGMP ELISA kit (Cat. No. 581021; Cayman Chemical, Ann Arbor, Mich.). Peptide incubations were run in duplicate, and samples taken from each incubation were run as duplicates in the ELISA test.
The ability of the GCC agonist peptide to bind to and activate the intestinal GC-C receptor was tested using T84 human colon carcinoma cell line. Human T84 colon carcinoma cells were obtained from the American Type Culture Collection. Cells were grown in a 1:1 mixture of Ham's F-12 medium and Dulbecco's modified Eagle's medium (DMEM) supplemented with 10% fetal bovine serum, 100 U penicillin/ml, and 100 μg/ml streptomycin. The cells were fed fresh medium every third day and split at a confluence of approximately 80%.
Biological activity of the GCC agonist peptides was assayed as previously reported (Shailubhai, et al., Cancer Research 60, 5151-5157 (2000)). Briefly, the confluent monolayers of T-84 cells in 24-well plates were washed twice with 250 μl of DMEM containing 50 mM HEPES (pH 7.4), pre-incubated at 37° C. for 10 min with 250 μl of DMEM containing 50 mM HEPES (pH 7.4) and 1 mM isobutylmethylxanthine (IBMX), followed by incubation with GCC agonist peptides (0.1 nM to 10 µM) for 30 min. The medium was aspirated, and the reaction was terminated by the addition of 3% perchloric acid. Following centrifugation, and neutralization with 0.1 N NaOH, the supernatant was used directly for measurements of cGMP using an ELISA kit (Caymen Chemical, Ann Arbor, Mich.).
An additional strategy to render peptides more resistant towards digestion by digestive proteases is to peggylate them at the N- and C-terminus. The peptide SP-333 was peggylated with the aminoethyloxy-ethyloxy-acetic acid (Aeea) group at the C-terminus (SP-347) or at the N-terminus (SP-350) or at both termini (SP-343). Cyclic GMP synthesis in T84 cells was measured by the method as described above.

Molecule	potency in cGMP stimulation assay relative to SP-339 (linaclotide) (intestinal GC-C receptor)	potency to stimulate cGMP synthesis in T84 cells relative to SP-333 (intestinal GC-C receptor)	also measured
CC(C)C[C@@H]1NC(=O)[C@H](CCC(=O)O)NC(=O)[C@@H](NC(=O)[C@H](CCC(=O)O)NC(=O)[C@H](CC(=O)O)NC(=O)[C@@H](N)CC(N)=O)CSSC[C@@H]2NC(=O)[C@H](C)NC(=O)[C@H](C(C)C)NC(=O)[C@H](CC(N)=O)NC(=O)[C@H](C(C)C)NC(=O)[C@H](CSSC[C@@H](C(=O)N[C@H](CC(C)C)C(=O)O)NC(=O)CNC(=O)[C@H]([C@@H](C)O)NC2=O)NC1=O [SP-332, Asn^1-Asp^2-Glu^3-Cys^4-Glu^5-Leu^6-Cys^7-Val^8-Asn^9-Val^10-Ala^11-Cys^12-Thr^13-Gly^14-Cys^15-dLeu^16] (H-NDECELCVNVACTGC[dL]-OH; disulfide 4-12, 7-15)	–	–	potency following incubation with SIF [1]: minor reduction in potency
Asn^1-Asp^2-Glu^3-Cys^4-Glu^5-Leu^6-Cys^7-Val^8-Asn^9-Val^10-Ala^11-Cys^12-Thr^13-Gly^14-Cys^15 (NDECELCVNVACTGC) [SP-338]	–	–	biological activity retained relative to full length 16-mer SP-304 (cGMP synthesis in T84 cells) (intestinal GC-C receptor; peptide 1.0 μM, 30 min (FIG. 4)): about 80%
Asn^1-Phe^2-Cys^3-Cys^4-Glu^5-Phe^6-Cys^7-Cys^8-Asn^9-Pro^10-Ala^11-Cys^12-Thr^13-Gly^14-Cys^15-Tyr^16 (NFCCEFCCNPACTGCY; disulfide 4-12, 7-15, 3-8) [SP-354]	virtually identical to SP-339	–	–
Asn^1-Phe^2-Cys^3-Cys^4-Glu^5-Ser^6-Cys^7-Cys^8-Asn^9-Pro^10-Ala^11-Cys^12-Thr^13-Gly^14-Cys^15-Tyr^16 (NFCCESCCNPACTGCY; disulfide 4-12, 7-15, 3-8) [SP-353]	more potent than SP-339	–	–
Cys^1-Cys^2-Glu^3-Tyr^4-Cys^5-Cys^6-Asn^7-Pro^8-Ala^9-Cys^10-Thr^11-Gly^12-Cys^13-dTyr^14 [SP-355]	considerably less potency	–	–
PEG3-dAsn^1-Asp^2-Glu^3-Cys^4-Glu^5-Leu^6-Cys^7-Val^8-Asn^9-Val^10-Ala^11-Cys^12-Thr^13-Gly^14-Cys^15-dLeu^16 ([PEG3′][dN]DECELCVNVACTGC[dL]; ends and bridges not checked) [SP-350]	–	comparable to SP-333	–
PEG3-dAsn^1-Asp^2-Glu^3-Cys^4-Glu^5-Leu^6-Cys^7-Val^8-Asn^9-Val^10-Ala^11-Cys^12-Thr^13-Gly^14-Cys^15-dLeu^16-PEG3 ([PEG3′][dN]DECELCVNVACTGC[dL][PEG3′]; ends and bridges not checked) [SP-343]	–	considerably less potent	–
dAsn^1-Asp^2-Glu^3-Cys^4-Glu^5-Leu^6-Cys^7-Val^8-Asn^9-Val^10-Ala^11-Cys^12-Thr^13-Gly^14-Cys^15-dLeu^16-PEG3 ([dN]DECELCVNVACTGC[dL][PEG3′]; ends and bridges not checked) [SP-347]	–	comparable to SP-333	–
dAsn^1-Asp^2-Glu^3-Cys^4-Glu^5-dLeu^6-Cys^7-Val^8-Asn^9-Val^10-Ala^11-Cys^12-Thr^13-Gly^14-Cys^15-dLeu^16 ([dN]DECE[dL]CVNVACTGC[dL]; ends and bridges not checked) [SP-337]	–	–	ability to stimulate cGMP synthesis in T84 cells relative to SP-304 (intestinal GC-C receptor): virtually complete loss of biological activity
dAsn^1-dAsp^2-dGlu^3-Cys^4-Glu^5-Leu^6-Cys^7-Val^8-Asn^9-Val^10-Ala^11-Cys^12-Thr^13-Gly^14-Cys^15-dLeu^16 ([dN][dD][dE]CELCVNVACTGC[dL]; disulfide (positions not given here); also: disulfides, number and pairing not given here) [SP-335]	–	–	ability to stimulate cGMP synthesis in T84 cells relative to SP-304 (intestinal GC-C receptor): comparable ability
